Variants at the floor of the assay were thinned out.
B1: TPR 5TU (parent)
chain: GGAUCUUCUCGAUCUAACAAAAAAGACAAAUCUGCCACAAAGCUUGAGAGCAUCUUCGGAUGCAGAGGCGGCAGCCUUCGGUGGCGCGAUAGCGCCAACGUUCUCAACUAUGACACGCAAAACGCGUGCUCCGUUGAAUGGAGUUUAUCAUG

Variants of: B1
Assay: polymerase ribozyme fitness, log enrichment relative to wild type (log ratio); higher = more active; in vitro selection for triplet polymerase activity
Procedure, shortened: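 Each subunit of a heterodimeric triplet polymerase ribozyme was mutagenized into a library by PCR, transcribed, and subjected to one round of in vitro selection, run in triplicate. Libraries were annealed with a biotinylated primer, the partner subunit and triplets, incubated frozen at −7 °C, and extended constructs were gel-excised, captured on streptavidin beads and recovered by RT-PCR. Input and output libraries were sequenced on Illumina, keeping genotypes with ≥10 input reads and ≥1 read per output. Fitness is log base 2 of genotype enrichment divided by wild-type enrichment, from inverse-variance-weighted replicate averages.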

Variant | polymerase ribozyme fitness (log ratio)
A40U A52G G65A G70A G128U | ≤ -4.2
A40C A138G U144G | -3.92
A41C U53A | -1.22
A39U G70C G80U C87G C93U U134C | ≤ -4.2
A41C U56A G70U C75G C93U C132U G136C | ≤ -4.2
A39U G59C U146G A150G | -3.66
C38U G58C G80A C95A C114G | -3.62
A40G C51A G83A C96U U101G | ≤ -4.2
A40G G84A C85G A106G | ≤ -4.2
A41G A49C U55C C69A C85U C108U | ≤ -4.2
C38U G50U G80C C85U | ≤ -4.2
C38U U90C U109C C116A C125G U146G | ≤ -4.2
A41C C93A A97C | -3.96
A41C A52C C114U | -3.97
C38U U56A A60G U78A C79G C85A A119C U135G U151A | ≤ -4.2
A40C U44A U55A C57A C76A | ≤ -4.2
A39U C96U | -2.1
A39C G70C A97G | ≤ -4.2
A40G G67A G94A G100A A107U | ≤ -4.2
A39G C54U G74A G88A U90A A137G | ≤ -4.2
A39U G84A C123G | -2.9
A41G A52G C69U C93U G94C U146C | -2.71
A41G G50C | -1.47
A41C A49C G92A A106C | ≤ -4.2

Variant | polymerase ribozyme fitness (log ratio)
A40U A113C | -3.79
A40G G84C U109G A119U U139A G140U G152U | ≤ -4.2
A40C G42U C51G G67A C76A G86C A89U U127G | ≤ -4.2
A41G G65A | -0.45
A40U U82G G84U C93A C99A U109G G136U | ≤ -4.2
A40U C54G C118A | -1.63
A39C A66C G86U | ≤ -4.2
A39C C85U | -2.48
A41C G92A | -3.32
A40C A60G G62U G68A A97U G141A A142G | ≤ -4.2
A39C C96U | -2.7
A39U U77A U78G C85G G86A | ≤ -4.2
A41G G84U C116U G136U | -3.6
A40C U61A | -1.94
A40C A150C | -3.94
A41C G67C C85A C131U A137G | ≤ -4.2
A39C G83U | -2.83
A41C C93U | -1.61
A41G A66C A89C G92U A97U G124U | ≤ -4.2
A39G G84A | -1.84
A39G G58A | -1.68
A41C C54U G141C | -1.43
A41G U56A G58C C87A C108G G143C | ≤ -4.2
A40U G46A C85A A115G A120G | -4.09

Variant | polymerase ribozyme fitness (log ratio)
A40U G84U G136U | -3.66
A39U U127C | -4
A41C | -0.379
A41G | 0.583
A40U A147G | -3.6
A39U A47G U78A A97U | ≤ -4.2
A40G G59A U78A G94A C108U | ≤ -4.2
A41G G58A U82G U144A U145C | 0.156
A40U A52U G126U U135G A142G | ≤ -4.2
A40C G50C G80C A97U U134A U145G | ≤ -4.2
A40C G65A A73U A98U | ≤ -4.2
A39C G80C C85U A89G C116G | ≤ -4.2
A41G C43A G59C | ≤ -4.2
A39G U56A G58U G141A | -1.28
A40U G126C | -0.388
C38U G84U C123U | -0.916
A39G A60C G84A C87G C95G C118G U145G | ≤ -4.2
A39C A49U G67A A121U | ≤ -4.2
A39G A49G C69U C123G G140C G141U | ≤ -4.2
A41C G42A A49G G88C U135A | ≤ -4.2
A40C G68U C99A U130G | ≤ -4.2
A41G C63G G74A C75U G92U U144C | -3.87
A41G U55A C57G | 0.000485
A39G U53C U77G A113C C116A | ≤ -4.2

Variant | polymerase ribozyme fitness (log ratio)
C38U G83U | -0.752
A41C U53A C63U C76A | ≤ -4.2
A39C U78A G84U U90C | ≤ -4.2
A41C U151G | -3.63
A41C G67A | -3.93
A39G U53C A91U C95G | ≤ -4.2
A40G A41G C63U C76A G83C G152U | ≤ -4.2
A39U C43A U44A U56G G59C G94A C103G U144A | ≤ -4.2
A40C G141U | 1.43
A39U A52U G83A U109G | ≤ -4.2
A41C G46A U82A C116G | -3.58
A41C C93G C105U | -2.84
A41C G80U C95A | -1.46
A39G U56A G94U A120U G141C | -3.09
A39C C63A A119C | -4.05
A40G U45A U55G G68C A91C U102G G126A C149G | ≤ -4.2
A40C G48A | -1.28
A39C G88C C108G | ≤ -4.2
A39U A52C C57U G58C | -3
A39U A110G U148G | -4
C38U U56A A120G G126U U145C U146G | -3.34
A40G C75U C93U A97U | ≤ -4.2
A39U G50A G67U G71C G84A | ≤ -4.2
A40U U44A C57U C76G A91U U134C G136C | ≤ -4.2

Variant | polymerase ribozyme fitness (log ratio)
A40G G84U A89U U104G | ≤ -4.2
C38U G59U C79G | -3.85
A41C G50A C96U | -1.93
A41G C57U U109G A122U | -2.07
A39G C57G | -2.43
A41C C57U | -0.124
A40C C76A | -2.59
A39G G81A C96G | -3.28
A39U C69U U82C C96U | -2.44
A39C G48C G59U A60U A66G G71A C96U U101G U151A | ≤ -4.2
A40G G71U G86U | ≤ -4.2
A40C G83U A119G | -1.55
A40C G42A A52U G81C G84U A97C C118U | ≤ -4.2
A41G C54U | 0.979
A40C C54A G59C C87U | -2.96
A41G U45C C57U G92A C108G | -3.34
A40C U44A A49C G65A C75G G84U C118U G128U U130C | ≤ -4.2
C38U C95A A120G G141C | -1.16
A40C G42U | ≤ -4.2
A40C A52U U111C A119U U139G U151G | ≤ -4.2
A40C U45A G48A A49C U55A G62C U77A C118A U134C A142G | ≤ -4.2
A39U C93U U144C | -3.54
A40C C51U U55G G74C A89C G92A | ≤ -4.2
A40G C57G G58A G117C A119U | -1.96

Variant | polymerase ribozyme fitness (log ratio)
A40U G83A C95A A115U G128U C129A | ≤ -4.2
A40U C51G | -1.26
A40U C51A | -0.707
A40U G48C A64U G83A G143A | ≤ -4.2
A39G U144C | -2.67
A41C U55G G81A C85U | -0.432
A39G G70C G92C U135G U145G U148A | ≤ -4.2
A39G C54G A106U | ≤ -4.2
A41C C43U A97G C108U G140U | ≤ -4.2
A40G U56A G84A A91C C95G G100U | ≤ -4.2
A39U U61C | -4.04
A40G U109G | -3.14
A41C G86U U90A C129A U130C G140U | ≤ -4.2
A40C C76U G86A A115C U135A A142G | -3.94
A39U C87U G133U U135G | ≤ -4.2
A40U U45G | -0.54
A40U U56G C72U A91G | -3.52
A41C C123U G126A U135G | -3.4
A41C C87U U102A U109C G136A A138U | ≤ -4.2
A39U G50U U139G | -2.97
A39C U55A C149U | -3.62
A40C A89U A137C | -3.94
A41C U53A C79A C108U A147C | ≤ -4.2
A41C C76G C96U | ≤ -4.2

Variant | polymerase ribozyme fitness (log ratio)
A39G C69G C93U C103G C108U C116U A137C | ≤ -4.2
A40G G46U G84U C87U A97U U144A | ≤ -4.2
A40U U145A | -0.163
A39U U55G G67C G86U A115C | ≤ -4.2
A41C U53C A122C C123A G141U U144G | -3.18
A40U C57U G68C A107G C108U U139A | ≤ -4.2
A40U U104C C108A | ≤ -4.2
A40U A91G C116U A121U | -2.66
A41C G50C G84A A119G | -3.83
A39G G42A G81U C87A G94U | ≤ -4.2
A39C C108U | -3.8
A40G G83U G92A C99G A107U | ≤ -4.2
A39C G83U A138C | -4.18
A40C G88A A91G U144G | ≤ -4.2
A40U C114G | -3.04
A39U A49U | -4.19
C38U U61C C87U C96G G136U | ≤ -4.2
A40C C69U A91U C96A A119G U134A A142U | ≤ -4.2
C38U G65U G71U U90C C114U U135C U146A | ≤ -4.2
C38U G80U U134G A142C G152U | -3.64
A40G U56A C99U | -2.66
A41C A47C G59A A60G C85A U127G A137G | ≤ -4.2
A41C G84A U109G | -3.33

Source: the RNAGym collection of RNA variant scans (doi:10.1073/pnas.2313332121)
